Test [1] concerns the target Human Bcl-2 lacking 34 amino acids at the COOH terminus (human, UniProt P10415 1-205). Briefly: co-IP.
The target of test [2] is His-tagged human Bcl-xL lacking 24 amino acids at the COOH terminus (human, UniProt Q07817-1 1-209). In words: co-IP.
His-tagged human Bcl-xL lacking 24 amino acids at the COOH terminus, sequence (Q07817 1-209): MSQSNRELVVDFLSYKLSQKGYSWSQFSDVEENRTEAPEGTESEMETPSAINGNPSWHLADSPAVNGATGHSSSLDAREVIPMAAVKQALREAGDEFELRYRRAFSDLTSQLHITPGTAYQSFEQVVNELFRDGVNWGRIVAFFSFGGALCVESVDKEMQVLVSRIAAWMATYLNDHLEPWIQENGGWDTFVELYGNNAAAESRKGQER

Human Bcl-2 lacking 34 amino acids at the COOH terminus, sequence (P10415 1-205): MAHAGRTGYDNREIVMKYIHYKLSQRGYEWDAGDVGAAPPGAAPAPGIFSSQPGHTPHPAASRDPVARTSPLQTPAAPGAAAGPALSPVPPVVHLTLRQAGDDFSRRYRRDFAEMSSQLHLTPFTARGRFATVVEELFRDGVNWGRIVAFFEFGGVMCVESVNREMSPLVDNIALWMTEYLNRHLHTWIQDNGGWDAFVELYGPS

B1: His-tagged Bid (recombinant wild-type Bid) (natural protein)
chain: MDSEVSNGSGLGAEHITDLLVFGFLQSSGCTRQELEVLGRELPVQAYWEADLEDELQTDGSQASRSFNQGRIEPDSESQEEIIHNIARHLAQIGDEMDHNIQPTLVRQLAAQFMNGSLSEEDKRNCLAKALDEVKTAFPRDMENDKAMLIMTMLLAKKVASHAPSLLRDVFHTTVNFINQNLFSYVRNLVRNEMD
As for B1, the binding result in test [1] and in test [2] was “binds” each time.

B2: BidmIII-3 (G94→ A) (natural protein)
chain: MDSEVSNGSGLGAEHITDLLVFGFLQSSGCTRQELEVLGRELPVQAYWEADLEDELQTDGSQASRSFNQGRIEPDSESQEEIIHNIARHLAQIADEMDHNIQPTLVRQLAAQFMNGSLSEEDKRNCLAKALDEVKTAFPRDMENDKAMLIMTMLLAKKVASHAPSLLRDVFHTTVNFINQNLFSYVRNLVRNEMD
As to B2, the binding result in test [1] and in test [2] was “binds” in each case.

These data come from PMC2148190 (The Journal of Cell Biology, 1999).
